Laboratory results: patent US20180230200A1 (CITY OF HOPE, published 2018)

Assays:
[1] = biological target: T1, UL131A expressed from MVA in BHK-21 cells (human cytomegalovirus, UniProt F5HET4 19-129); experiment: intracellular FC, MVA-infected BHK-21
T1 construct: whole, on cells
Method: (§1) NAb subunit specificity was evaluated by staining BHK-21 cells infected with different MVA recombinants. One or more vectors were used to co-infect BHK-21 at an MOI of 5. […] Four hours post infection cells were fixed and permeabilized using Cytofix/Cytoperm solution (BD Biosciences). NAbs (1 mg/ml) were diluted 1:500 in perm/wash buffer (BD) and added to the cells for 1 hour at 4° C. […] Cells were washed again and resuspended in PBS/0.1% BSA. Fifteen thousand events were collected using the Gallios Flow Cytometer (Beckman Coulter, Miami, Fla., USA) and analyzed with FlowJo Software (Tree Star, Ashland, Oreg., USA). Uninfected cells and cells infected with MVA-Venus were used as controls. GFP expression was analyzed for confirming MVA infection since all the constructs contain a GFP expression cassette (36, 62).
(§2) In order to determine the antigen specificity of the vaccine-derived NAbs, intracellular flow cytometry (FC) staining of permeabilized BHK-21 cells infected with MVA expressing single subunits or combinations of two or more subunits of the PC was evaluated.

[2] = biological target: T2, gH/gL/UL131A co-expressed from MVA in BHK-21 cells (human cytomegalovirus, UniProt P12824 24-743; P16832 31-278; F5HET4 19-129); experiment: intracellular FC, MVA-infected BHK-21
T2 construct: whole, on cells
Method: as §1, §2

[3] = biological target: T3, gH/gL co-expressed from MVA in BHK-21 cells (human cytomegalovirus, UniProt P12824 24-743; P16832 31-278); experiment: intracellular FC, MVA-infected BHK-21
T3 construct: whole, on cells
Method: as §1, §2

[4] = biological target: T4, gH/gL/UL130 co-expressed from MVA in BHK-21 cells (human cytomegalovirus, UniProt P12824 24-743; P16832 31-278; P16772 1-214); experiment: intracellular FC, MVA-infected BHK-21
T4 construct: whole, on cells
Method: as §1, §2

[5] = biological target: T5, UL130 expressed from MVA in BHK-21 cells (human cytomegalovirus, UniProt P16772 1-214); experiment: intracellular FC, MVA-infected BHK-21
T5 construct: whole, on cells
Method: as §1, §2

[6] = biological target: T6, gH/gL/UL130/UL131A co-expressed from MVA in BHK-21 cells (human cytomegalovirus, UniProt P12824 24-743; P16832 31-278; P16772 1-214; F5HET4 19-129); experiment: intracellular FC, MVA-infected BHK-21
T6 construct: whole, on cells
Method: as §1, §2

[7] = biological target: T7, UL130/UL131A co-expressed from MVA in BHK-21 cells (human cytomegalovirus, UniProt P16772 1-214; F5HET4 19-129); experiment: intracellular FC, MVA-infected BHK-21
T7 construct: whole, on cells
Method: as §1, §2

[8] = biological target: T8, gH expressed from MVA in BHK-21 cells (human cytomegalovirus, UniProt P12824 24-743); experiment: intracellular FC, MVA-infected BHK-21
T8 construct: whole, on cells
Method: as §1, §2

[9] = biological target: T9, gH/gL/UL128/UL130/UL131A pentamer complex expressed from MVA-PC in BHK-21 cells (human cytomegalovirus, UniProt P12824 24-743; P16832 31-278; P16837 28-171; P16772 1-214; F5HET4 19-129); experiment: FC competition, MVA-PC BHK-21; unlabelled row Ab; competitor: biotinylated 1B2
T9 construct: whole, on cells

[10] = biological target: T9, gH/gL/UL128/UL130/UL131A pentamer …; experiment: FC competition, MVA-PC BHK-21; unlabelled row Ab; competitor: biotinylated 18F10
[11] = biological target: T9, gH/gL/UL128/UL130/UL131A pentamer …; experiment: FC competition, MVA-PC BHK-21; unlabelled row Ab; competitor: biotinylated 21F6
[12] = biological target: T9, gH/gL/UL128/UL130/UL131A pentamer …; experiment: FC competition, MVA-PC BHK-21; unlabelled row Ab; competitor: biotinylated 13B5
[13] = biological target: T9, gH/gL/UL128/UL130/UL131A pentamer …; experiment: FC competition, MVA-PC BHK-21; unlabelled row Ab; competitor: biotinylated 12E2
[14] = biological target: T9, gH/gL/UL128/UL130/UL131A pentamer …; experiment: FC competition, MVA-PC BHK-21; unlabelled row Ab; competitor: biotinylated 54E11
[15] = biological target: T10, KLH-K15M (human cytomegalovirus); experiment: ELISA with KLH-coupled peptides (FIG. 11A)
T10 peptide: KHKRLDVCRAKMGYM

[16] = biological target: T11, KLH-K14CS; experiment: ELISA with KLH-coupled peptides (FIG. 11A)
T11 peptide: KRLDVSRAKMGYMC

[17] = biological target: T12, KLH-K16CS; experiment: ELISA with KLH-coupled peptides (FIG. 11A)
T12 peptide: KHKRLDVSRAKMGYMC

[18] = biological target: T9, gH/gL/UL128/UL130/UL131A pentamer …; experiment: FC, biotinylated NAb titrated on MVA-PC-infected BHK-21 (cell surface PC)
[19] = biological target: gH/gL/UL128/UL130/UL131A pentamer complex (PC) of HCMV strain TR virus (human cytomegalovirus strain TR); experiment: cell-based or functional assay
[20] = biological target: gH/gL/UL128/UL130/UL131A pentamer complex (PC) of HCMV strain TB40/E virus (human cytomegalovirus strain TB40/E); experiment: cell-based or functional assay

B1: 13B5 (antibody, V domains shown)
VH: QVTLKESGPGILKPSQTLSLTCSFSGFSLTTSGLGVGWIRQPSGKGLEWLAHIWWDDDKYFNPSLRNQLTISKDTSRNQVFLEITSVTTADTATYYCVRSLYDYDEGYYFDSWGQGTTLTVSS
VL: EIVMIQSPATLSVNPGDRVSLSCRASQSISDYLHWYQQKSHESPRLLIKYASQSISGIPSRFSGSGSGSDFTLSINSVEPEDVGVYYCQNGHTFPPTFGGGTKLEIK
notes: also called NAb 13B5; 1365
[1]
  binding result: no binding
[2]
  binding result: no binding
[3]
  binding result: no binding
[4]
  binding result: no binding
[5]
  binding result: no binding
[6]
  binding result: no binding
[7]
  binding result: no binding
[8]
  binding result: no binding
[9]
  Binding Inhibition (%): 0%
[10]
  Binding Inhibition (%): 0%
[11]
  Binding Inhibition (%): 0%
[12]
  Binding Inhibition (%): 100%
[13]
  Binding Inhibition (%): 0%
[14]
  Binding Inhibition (%): 0%
[15]
  binding result: binds
[16]
  binding result: binds
[17]
  binding result: binds
[18]
  EC50: 0.68 nM
[19]
  IC50, inhibition of TR cell-to-cell spread in ARPE-19: 21 µg/mL
  IC50, neutralization of TR infection of ARPE-19: 0.0199 µg/mL
  IC50, neutralization of TR infection of HUVEC: 0.0077 µg/mL
  IC50, neutralization of TR infection of MRC-5: > 25 µg/mL
[20]
  IC50, inhibition of TB40/E cell-to-cell spread in ARPE-19: 22 µg/mL
  IC50, neutralization of TB40/E infection of ARPE-19: 0.015 µg/mL
  IC50, neutralization of TB40/E infection of CTB: 0.0998 µg/mL
  IC50, neutralization of TB40/E infection of HUVEC: 0.012 µg/mL
  IC50, neutralization of TB40/E infection of MRC-5: > 25 µg/mL
